Data published in patent US6730503B1 (Roche Vitamins Inc., priority 1996, dated 2004).

Experiments:
[1] = Thermal stability, 5 minutes, residual activity by PMS-DCIP assay; assay type: physicochemical
Method: Table 4 indicates the results of thermal-stabilities of the enzymes. The enzyme (about 0.05 mg/ml) in 25 mM HEPES buffer, pH 7.5, containing 5% sucrose, 0.2 M NaCl, and 5 mM CaCl2 was incubated at temperature indicated in the table (4-60° C.) for 5 minutes, cooled in ice bath and assayed by PMS-DCIP spectrophotometric method. Remaining activity was expressed as relative activity against that obtained by 4° C. incubation.

[2] = Substrate specificity of purified enzymes, PMS-DCIP spectrophotometric assay; assay type: biochemical; conditions: A′ corrected 1.5-fold (purity about 65%)
Method: The enzymatic activity of the AADHs herein can be determined by methods known in the art, such as by photometric analysis using a spectrophotometer. In accordance with the present invention, one unit of enzyme activity was defined as the amount of enzyme which catalyzed the reduction of 1 μmole of DCIP per minute. The extinction coefficient of DCIP at pH 8.0 was taken as 15 mM^−1. In a preferred standard assay for determining the enzyme activity of the AADHs herein, a first cuvette includes a standard reaction mixture (1.0 ml) containing 0.1 mM DCIP, 1 mM PMS, 2 to 125 mM substrate, 50 mM Tris-malate-NaOH buffer (pH 8.0), and 10 μl of the enzyme solution. A second cuvette, i.e., a reference cuvette, contains all the above components except the substrate. The reference cuvette is used to standardize the background absorbance resulting from a substrate-independent (endogenous) reaction. Preferably, a double beam spectrophotometer is used to determine the activity of the enzyme in the presence of a substrate with respect to a standard reaction mixture in the absence of the substrate.
Enzyme activities of each clone (cell free extract, soluble fraction and membrane fraction) were measured by photometric analysis. The cells of each clone were inoculated in 5 ml of MB medium in a test tube and cultivated at 30° C. for 24 hours. The resulting broth was transferred into 200 ml of fresh MB medium in 500 ml flask and the flask was shaken on the rotary flask shaker at 30° C. for 24 hours. The cells were collected by centrifugation at 6,000×g for 10 minutes and washed with 40 ml of cold buffer consisting of 50 mM Tris-HCl, pH 7.5, 5 mM MgCl2 and 0.5 mM phenylmethylsulfonyl fluoride and suspended with the same buffer to prepare cell suspension of 1 g wet cells per 5 ml. The cell suspension was subjected twice to a French press cell disruptor (1,500 kg/cm^2) and the resulting homogenate was centrifuged at 6,000×g for 10 minutes to remove cell debris. Thus obtained cell free extract (CFE) was centrifuged at 100,000×g for 60 minutes. The resulting supernatant and pellet were collected as the cytosol fraction and the membrane fraction, respectively and subjected to PMS-DCIP assay as follows. The enzyme reaction mixture (1.0 ml) contained 100 μM DCIP, 1 mM PMS, 50 mM Tris malate-NaOH buffer, pH 8.0, a substrate and the enzyme (10 μl). Substrate-dependent decreasing rate of absorbance of DCIP at 600 nm was measured at 25° C. by using a Kontron spectrophotometer UVIKON 810. […] In the A-group, there were three types, A, A′ and A″ each of which was distinguished from each other by their physical map of the DNA carried on each plasmid. B- or C-group each consisted of only one type of protein derived from one region of the chromosomal DNA.

[3] = Products of enzyme reactions with purified enzymes, identified by TLC and/or HPLC; assay type: biochemical
Method: Products formed from a substrate in the reaction with Enzyme A, Enzyme A′, Enzyme A″ or Enzyme B were analyzed by thin layer chromatography (TLC) and/or high performance liquid chromatography (HPLC) with authentic compounds. […] Similarly to the reactivity for L-sorbosone, D-glucosone can be converted to 2KD by all of above mentioned AADHs. A group enzymes can produce 2KD from D-fructose whose possible direct product is D-glucosone. […]
Enzyme reactions with purified Enzyme A or Enzyme B and various substrates were performed as described in Example 11.

[4] = Optimal pH, PMS-DCIP assay in buffers of various pH; assay type: biochemical
Method: The Enzymes A″ and B have a relatively wide pH range toward a lower pH, compared with the Enzymes A and A′.
The enzyme activity was assayed by the PMS-DCIP spectrophotometric assay using various pH buffers. The buffers were 50 mM Tris-malate-NaOH, pH 6.0, 6.5, 7.0, 7.5, 8.0 and 8.5; 50 mM glycine-NaOH, pH 9.0 and 9.5. The extinction coefficients of DCIP at pH 6.0, 6.5, 7.0, 7.5, 8.0, 8.5, 9.0 and 9.5 were taken as 10.8, 13.2, 14.5, 14.9, 15.0, 15.1, 15.1 and 15.1, respectively. […] The Enzymes A″ and B had relatively wide pH range toward lower pH, compared with the Enzymes A and A′.

[5] = Oxidation product of AADH clones by resting cell reaction followed by TLC analysis; assay type: cell-based, P. putida
Text: Enzyme A gene was originally cloned as a cosmid clone of p24D4 which has about 25 kb insert in EcoRI site of pVK100. Then, it was further subcloned to use as an Enzyme A gene cassette. The 2.7 kb EcoRV fragment which includes ORF of Enzyme A gene with about 500 bp of non-coding regions at the both ends was excised from 3.4 kb NruI fragment, which was isolated from p24D4 in M13 mp18, and was ligated to HindIII site of pUC18 with HindIII linker ([…]). The resulting plasmid was designated pSSA202. Enzyme A gene cassette (2.7 kb HindIII fragment) was then inserted at HindIII site of pVK102 to produce pSSA102R. The plasmid pSSA102R was introduced into nalidixic acid resistant P. putida [ATCC 21812] by a conjugal mating method as described in Example 1-(1). The transconjugant of P. putida carrying pSSA102R was selected on MB agar medium containing 50 μg/ml nalidixic acid and 10 μg/ml tetracycline (MNT agar medium) and subjected to a mini-resting cell reaction. […] The reaction mixture was assayed with TLC and 2KGA was identified as the product, while no 2KGA was observed by the same resting cell reaction with the host, nalidixic acid resistant P. putida [ATCC 21812].

B1: Enzyme A″: recombinant AADH of G. oxydans DSM No. 4025, amino acid sequence SEQ ID NO 7, plasmid p26C3 (protein)
chain: MKLTTLLQSSAALLVLGTIPALAQTAITDEMLANPPAGEWINYGQNQENYRHSPLTQITADNVGQLQLVWARGMEAGKIQVTPLVHDGVMYLANPGDVIQAIDAATGDLIWEHRRQLPNIATLNSFGEPTRGMALYGTNVYFVSWDNHLVALDTSTGQVVFDVDRGQGTDMVSNSSGPIVANGVIVAGSTCQYSPFGCFVSGHDSATGEELWRNTFIPRAGEEGDETWGNDYEARWMTGVWGQITYDPVGGLVHYGTSAVGPAAEIQRGTVGGSMYGTNTRFAVRPETGEIVWRHQTLPRDNWDQECTFEMMVVNVDVQPSAEMEGLHAINPDAATGERRVVTGVPCKNGTMWQFDAETGEFLWARDTSYQNLIESVDPDGLVHVNEDLVVTELEVAYEICPTFLGGRDWPSAALNPDTGIYFIPLNNACSGMTAVDQEFSSLDVYNVSLDYKLSPGSENMGRIDAIDISTGRTLWSAERYASNYAPVLSTGGGVLFNGGTDRYFRALSQETGETLWQTRLATVASGQAISYEIDGVQYVAIGRGGTSYGSNHNRALTERIDSTAIGSAIYVFALPQQ
modifications: Gluconobacter oxydans; SIGNAL (1)..(23)
Relative activity (thermal stability) ([1]; 4° C. for 5 minutes (reference)): 100.0% | Relative activity (thermal stability) ([1]; 20° C. for 5 minutes, relative to 4° C. incubation): 96.0% | Relative activity (thermal stability) ([1]; 30° C. for 5 minutes, relative to 4° C. incubation): 86.1% | Relative activity (thermal stability) ([1]; 40° C. for 5 minutes, relative to 4° C. incubation): 72.8% | Relative activity (thermal stability) ([1]; 50° C. for 5 minutes, relative to 4° C. incubation): 26.6% | Relative activity (thermal stability) ([1]; 60° C. for 5 minutes, relative to 4° C. incubation): 13.3% | Substrate specificity ([2]; 2 mM L-Sorbosone): 26.5 units/mg of purified protein | Substrate specificity ([2]; 50 mM D-Glucose): 17.8 units/mg of purified protein | Substrate specificity ([2]; 50 mM D-Mannitol): 6.2 units/mg of purified protein | Substrate specificity ([2]; 50 mM Isopropanol): 154.9 units/mg of purified protein | Substrate specificity ([2]; 50 mM n-Propanol): 262.3 units/mg of purified protein | Substrate specificity ([2]; 125 mM D-Fructose): 17.3 units/mg of purified protein | Substrate specificity ([2]; 125 mM D-Sorbitol): 30.1 units/mg of purified protein | Substrate specificity ([2]; 125 mM L-Sorbose): 30.3 units/mg of purified protein | Product ([3]; substrate D-Fructose): 2-keto-D-gluconic acid | Product ([3]; substrate D-Mannitol): D-mannose | Product ([3]; substrate D-Sorbitol): D-glucose with L-gulose | Product ([3]; substrate L-Sorbose): L-sorbosone with 2KGA | Product ([3]; substrate L-Sorbosone): 2KGA | Relative activity (optimal pH) ([4]; assay pH 6.0, pH 8.0 = 100): 35.0% | Relative activity (optimal pH) ([4]; assay pH 6.5, pH 8.0 = 100): 57.3% | Relative activity (optimal pH) ([4]; assay pH 7.0, pH 8.0 = 100): 74.8% | Relative activity (optimal pH) ([4]; assay pH 7.5, pH 8.0 = 100): 90.0% | Relative activity (optimal pH) ([4]; assay pH 8.0): 100.0% | Relative activity (optimal pH) ([4]; assay pH 8.5, pH 8.0 = 100): 85.6% | Relative activity (optimal pH) ([4]; assay pH 9.0, pH 8.0 = 100): 46.5% | Relative activity (optimal pH) ([4]; assay pH 9.5, pH 8.0 = 100): 23.9% | Oxidation product of D-sorbitol [5]: mainly D-glucose | Oxidation product of L-sorbose [5]: *1Oxidation product of L-sorbose by Enzymes A, A′, A″, and [A and B] was 2KGA. | Oxidation product of L-sorbosone [5]: *4Oxidation product of L-sorbosone by Enzymes A, A′, A″, B, and [A and B] was 2KGA.
